The values below are quoted from earlier work in paper PMC4584479.

Like-named read-outs stand apart in the source and are kept apart here.

Series [1] has as its target IL-15Rβ/γc (Homo sapiens) (UniProt P14784).
Series [2] has the same target. The source holds these as a separate data set.

Chain of UniProt P14784 (P14784 27-240, chain 1 of 2): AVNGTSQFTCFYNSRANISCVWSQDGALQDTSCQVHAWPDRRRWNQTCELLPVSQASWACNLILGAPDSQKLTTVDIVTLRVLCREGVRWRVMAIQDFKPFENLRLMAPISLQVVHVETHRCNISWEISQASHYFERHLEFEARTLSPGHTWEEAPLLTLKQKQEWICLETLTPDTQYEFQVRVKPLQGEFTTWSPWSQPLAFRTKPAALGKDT
Chain of UniProt P14784 (P31785 23-262, chain 2 of 2, further chain): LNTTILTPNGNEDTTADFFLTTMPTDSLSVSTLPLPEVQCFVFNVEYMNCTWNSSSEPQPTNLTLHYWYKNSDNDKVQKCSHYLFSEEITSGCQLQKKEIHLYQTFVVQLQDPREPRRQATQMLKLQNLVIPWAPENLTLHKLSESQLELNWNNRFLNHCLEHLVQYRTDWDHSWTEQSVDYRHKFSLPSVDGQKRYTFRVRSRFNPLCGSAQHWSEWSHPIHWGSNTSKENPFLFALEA

The term Kd denotes a measure of binding affinity in units of concentration. In the case of IL-15 (from UniProt P40933), the Kd in series [1] was 13.5 nM. Turning to “IL-15/IL-15Rα-sushi fusion protein (IL-15 hyperagonist) sushi domain of IL-15Rα fused to IL-15 (from UniProt P40933)”, in series [2], the equilibrium dissociation constant (Kd) was 0.78 nM.
